# Data from patent publication US20240209076A1 (KODIAK SCIENCES, published 2024).
# Changes are numbered by the printed parent chain. Numbers in names are those of the source.
# B1: anti-IL-6 antibody, heavy chain S35V, G66D / light chain M32L, M50D, N52S, M88Q (antibody, IgG1, V domains shown)
# VH: EVQLVESGGGLVQPGGSLRLSCAASGFTFSPFAMVWVRQAPGKGLEWVAKISPGGSWTYYSDTVTDRFTFSLDTSKSTAYLQMNSLRAEDTAVYYCARQLWGYYALDIWGQGTLVTVSS
# VL: DIQLTQSPSSLSASVGDRVTITCSASISVSYLYWYQQKPGKAPKLLIYDDSSLASGVPSRFSGSGSGTDFTLTISSLQPEDFATYYCQQWSGYPYTFGQGTKVEIK
# notes: Full IgG1 (Expi293); VL = variant III
# B2: anti-IL-6 antibody, heavy chain T65E, G66D / light chain M32L, M50D, N52S, M88Q (antibody, IgG1, V domains shown)
# VH: B1 VH with V35S, T65E
# VL: B1 VL
# notes: as for B1
# B3: anti-IL-6 antibody, heavy chain T65G, G66D / light chain M32L, M50D, N52S, M88Q (antibody, IgG1, V domains shown)
# VH: B1 VH with V35S, T65G
# VL: B1 VL
# notes: as for B1
# B4: anti-IL-6 antibody, heavy chain T63F, G66D / light chain M32L, M50D, N52S, M88Q (antibody, IgG1, V domains shown)
# VH: B1 VH with V35S, T63F
# VL: B1 VL
# notes: as for B1
# B5: anti-IL-6 antibody, heavy chain T65S, G66D / light chain M32L, M50D, N52S, M88Q (antibody, IgG1, V domains shown)
# VH: B1 VH with V35S, T65S
# VL: B1 VL
# notes: as for B1
# B6: anti-IL-6 antibody, heavy chain T65D, G66D / light chain M32L, M50D, N52S, M88Q (antibody, IgG1, V domains shown)
# VH: B1 VH with V35S, T65D
# VL: B1 VL
# notes: as for B1
# B7: anti-IL-6 antibody, heavy chain T65A, G66D / light chain M32L, M50D, N52S, M88Q (antibody, IgG1, V domains shown)
# VH: B1 VH with V35S, T65A
# VL: B1 VL
# notes: as for B1
# B8: anti-IL-6 antibody, heavy chain T63D, G66D / light chain M32L, M50D, N52S, M88Q (antibody, IgG1, V domains shown)
# VH: B1 VH with V35S, T63D
# VL: B1 VL
# notes: as for B1
# B9: anti-IL-6 antibody, heavy chain T63L, G66D / light chain M32L, M50D, N52S, M88Q (antibody, IgG1, V domains shown)
# VH: B1 VH with V35S, T63L
# VL: B1 VL
# notes: as for B1
# B10: anti-IL-6 antibody, heavy chain T63G, G66D / light chain M32L, M50D, N52S, M88Q (antibody, IgG1, V domains shown)
# VH: B1 VH with V35S, T63G
# VL: B1 VL
# notes: as for B1
# B11: anti-IL-6 antibody, heavy chain T63R, G66D / light chain M32L, M50D, N52S, M88Q (antibody, IgG1, V domains shown)
# VH: B1 VH with V35S, T63R
# VL: B1 VL
# notes: as for B1
# B12: anti-IL-6 antibody, heavy chain T63P, G66D / light chain M32L, M50D, N52S, M88Q (antibody, IgG1, V domains shown)
# VH: B1 VH with V35S, T63P
# VL: B1 VL
# notes: as for B1
# B13: anti-IL-6 antibody, heavy chain T65R, G66D / light chain M32L, M50D, N52S, M88Q (antibody, IgG1, V domains shown)
# VH: B1 VH with V35S, T65R
# VL: B1 VL
# notes: as for B1
# B14: anti-IL-6 antibody, heavy chain T63I, G66D / light chain M32L, M50D, N52S, M88Q (antibody, IgG1, V domains shown)
# VH: B1 VH with V35S, T63I
# VL: B1 VL
# notes: as for B1
# B15: anti-IL-6 antibody, heavy chain T63V, G66D / light chain M32L, M50D, N52S, M88Q (antibody, IgG1, V domains shown)
# VH: B1 VH with V35S, T63V
# VL: B1 VL
# notes: as for B1
# B16: anti-IL-6 antibody, heavy chain T63Y, G66D / light chain M32L, M50D, N52S, M88Q (antibody, IgG1, V domains shown)
# VH: B1 VH with V35S, T63Y
# VL: B1 VL
# notes: as for B1
# B17: anti-IL-6 antibody, heavy chain T63H, G66D / light chain M32L, M50D, N52S, M88Q (antibody, IgG1, V domains shown)
# VH: B1 VH with V35S, T63H
# VL: B1 VL
# notes: as for B1
# B18: anti-IL-6 antibody, heavy chain T65L, G66D / light chain M32L, M50D, N52S, M88Q (antibody, IgG1, V domains shown)
# VH: B1 VH with V35S, T65L
# VL: B1 VL
# notes: as for B1
# B19: anti-IL-6 antibody, heavy chain T65H, G66D / light chain M32L, M50D, N52S, M88Q (antibody, IgG1, V domains shown)
# VH: B1 VH with V35S, T65H
# VL: B1 VL
# notes: as for B1
# B20: anti-IL-6 antibody, heavy chain S35Y, G66D / light chain M32L, M50D, N52S, M88Q (antibody, IgG1, V domains shown)
# VH: B1 VH with V35Y
# VL: B1 VL
# notes: as for B1
# B21: anti-IL-6 antibody, heavy chain T63W, G66D / light chain M32L, M50D, N52S, M88Q (antibody, IgG1, V domains shown)
# VH: B1 VH with V35S, T63W
# VL: B1 VL
# notes: as for B1
# B22: anti-IL-6 antibody, heavy chain T63S, G66D / light chain M32L, M50D, N52S, M88Q (antibody, IgG1, V domains shown)
# VH: B1 VH with V35S, T63S
# VL: B1 VL
# notes: as for B1
# B23: anti-IL-6 antibody, heavy chain T63A, G66D / light chain M32L, M50D, N52S, M88Q (antibody, IgG1, V domains shown)
# VH: B1 VH with V35S, T63A
# VL: B1 VL
# notes: as for B1
# B24: anti-IL-6 antibody, heavy chain T65V, G66D / light chain M32L, M50D, N52S, M88Q (antibody, IgG1, V domains shown)
# VH: B1 VH with V35S, T65V
# VL: B1 VL
# notes: as for B1
# B25: anti-IL-6 antibody, heavy chain T65K, G66D / light chain M32L, M50D, N52S, M88Q (antibody, IgG1, V domains shown)
# VH: B1 VH with V35S, T65K
# VL: B1 VL
# notes: as for B1
# B26: anti-IL-6 antibody, heavy chain T65P, G66D / light chain M32L, M50D, N52S, M88Q (antibody, IgG1, V domains shown)
# VH: B1 VH with V35S, T65P
# VL: B1 VL
# notes: as for B1
# B27: anti-IL-6 antibody, heavy chain T65F, G66D / light chain M32L, M50D, N52S, M88Q (antibody, IgG1, V domains shown)
# VH: B1 VH with V35S, T65F
# VL: B1 VL
# notes: as for B1
# B28: anti-IL-6 antibody, heavy chain S35W, G66D / light chain M32L, M50D, N52S, M88Q (antibody, IgG1, V domains shown)
# VH: B1 VH with V35W
# VL: B1 VL
# notes: as for B1
# Biological target: T1, human IL-6 (human, UniProt P05231 30-212)
# T1 construct: IL-6 flowed over captured antibodies
# T1 sequence (P05231 30-212 limits assumed): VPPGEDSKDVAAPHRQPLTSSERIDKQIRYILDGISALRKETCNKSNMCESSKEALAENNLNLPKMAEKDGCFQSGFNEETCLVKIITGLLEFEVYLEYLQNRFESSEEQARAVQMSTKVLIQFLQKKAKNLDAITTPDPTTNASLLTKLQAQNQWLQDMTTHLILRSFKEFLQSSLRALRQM
# Assay: SPR Biacore, supernatant Ab on Protein A chip, 37 C
# Method: Antibodies were captured on a Protein A chip (GE) by injecting 1:20 cell supernatant dilutions at 10 μL/min for 60 seconds. […] The sensor chip was regenerated by a 60 seconds injection of 10 mM Glycine pH 1.7 at the flow rate of 50 μL/min. […] For this setup, 1 μg/mL of purified antibody was injected over a Protein A chip at 10 μL/min for 25 seconds. […] The sensor chip was regenerated by a 60 seconds injection of 10 mM Glycine pH 1.7 at flow rate of 50 μL/min. Data analysis for supernatant and purified samples were performed using BIAevaluation software (GE). All sensorgrams were double reference subtracted and fit using a 1:1 Langmuir binding model.
Kd [pM],koff [s⁻¹],kon [M⁻¹ s⁻¹],Binder
1330,0.00137,1.03e+06,B1
279,0.000474,1.7e+06,B2
311,0.000477,1.53e+06,B3
274,0.000459,1.67e+06,B4
310,0.000441,1.42e+06,B5
465,0.00048,1.03e+06,B6
239,0.000542,2.27e+06,B7
249,0.000413,1.66e+06,B8
283,0.000454,1.6e+06,B9
261,0.00045,1.73e+06,B10
273,0.000526,1.92e+06,B11
246,0.000419,1.7e+06,B12
327,0.000532,1.63e+06,B13
288,0.000446,1.55e+06,B14
274,0.00043,1.57e+06,B15
241,0.000459,1.91e+06,B16
280,0.000481,1.72e+06,B17
293,0.000446,1.53e+06,B18
297,0.000423,1.43e+06,B19
3430,0.00404,1.18e+06,B20
286,0.000449,1.57e+06,B21
278,0.000499,1.8e+06,B22
268,0.000458,1.7e+06,B23
281,0.000551,1.96e+06,B24
356,0.000579,1.63e+06,B25
601,0.00108,1.79e+06,B26
291,0.000391,1.34e+06,B27
34600,0.00591,171000,B28
